Experimental findings from patent US20260242735A1 (UNIVERSIT T BASEL, published 2026) are described below.

One test has as its target human CD33 P19L (human, UniProt P20138 18-364). As to the kind of experiment: flow cytometry, HEK293-T, IgG.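 Further: CD33 point mutants transiently expressed, antibody binding measured by fluorescence in duplicate, background subtracted and scaled to binding on wild-type CD33 as 100%.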 Background: Flow cytometry measures light scatter and fluorescence of single cells or particles in a stream.
The target of another test is human CD33 Q24H (human, UniProt P20138 18-364). As to the kind of experiment: flow cytometry, HEK293-T, IgG.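 Further: CD33 point mutants transiently expressed, antibody binding measured by fluorescence in duplicate, background subtracted and scaled to binding on wild-type CD33 as 100%.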
For a further test, the target named is human CD33 W22T (human, UniProt P20138 18-364). As to the kind of experiment: flow cytometry, HEK293-T, IgG.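 Further: CD33 point mutants transiently expressed, antibody binding measured by fluorescence in duplicate, background subtracted and scaled to binding on wild-type CD33 as 100%.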
Another test concerns the target human CD33 N20K (human, UniProt P20138 18-364). Nature of the test: flow cytometry, HEK293-T, IgG.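 Further: CD33 point mutants transiently expressed, antibody binding measured by fluorescence in duplicate, background subtracted and scaled to binding on wild-type CD33 as 100%.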
In a further test the target is human CD33 W22Y (human, UniProt P20138 18-364). Nature of the test: flow cytometry, HEK293-T, IgG.
The target in the next test is human CD33 N20Y (human, UniProt P20138 18-364). As to the kind of experiment: flow cytometry, HEK293-T, IgG.
The next test deals with human CD33 V25M (human, UniProt P20138 18-364). Nature of the test: flow cytometry, HEK293-T, IgG.
The target of a further test is human CD33 W22S (human, UniProt P20138 18-364). Nature of the test: flow cytometry, HEK293-T, IgG.
The target of a further test is human CD33 F21L (human, UniProt P20138 18-364). As to the kind of experiment: flow cytometry, HEK293-T, IgG.
A further test deals with human CD33 W22Q (human, UniProt P20138 18-364). As to the kind of experiment: flow cytometry, HEK293-T, IgG.
The target of the next test is human CD33 D18N (human, UniProt P20138 19-364). As to the kind of experiment: flow cytometry, HEK293-T, IgG.
For another test, the target named is human CD33 N20P (human, UniProt P20138 18-364). Nature of the test: flow cytometry, HEK293-T, IgG.
The target of the next test is human CD33 N20V (human, UniProt P20138 18-364). As to the kind of experiment: flow cytometry, HEK293-T, IgG.
Another test deals with human CD33 Q24I (human, UniProt P20138 18-364). Nature of the test: flow cytometry, HEK293-T, IgG.
The next test deals with human CD33 P19W (human, UniProt P20138 18-364). As to the kind of experiment: flow cytometry, HEK293-T, IgG.
In the next test the target is human CD33 W22P (human, UniProt P20138 18-364). As to the kind of experiment: flow cytometry, HEK293-T, IgG.
The target in the next test is human CD33 N20D (human, UniProt P20138 18-364). As to the kind of experiment: flow cytometry, HEK293-T, IgG.
The target of a further test is human CD33 Q24L (human, UniProt P20138 18-364). Nature of the test: flow cytometry, HEK293-T, IgG.
The target in the next test is human CD33 W22L (human, UniProt P20138 18-364). As to the kind of experiment: flow cytometry, HEK293-T, IgG.
A further test has as its target human CD33 V25I (human, UniProt P20138 18-364). Nature of the test: flow cytometry, HEK293-T, IgG.
A further test addresses human CD33 Q24S (human, UniProt P20138 18-364). As to the kind of experiment: flow cytometry, HEK293-T, IgG.
Another test has as its target human CD33 Q24R (human, UniProt P20138 18-364). As to the kind of experiment: flow cytometry, HEK293-T, IgG.
The target of another test is human CD33 N20L (human, UniProt P20138 18-364). Nature of the test: flow cytometry, HEK293-T, IgG.
The target of another test is human CD33 N20S (human, UniProt P20138 18-364). Nature of the test: flow cytometry, HEK293-T, IgG.
Another test has as its target human CD33 Q24V (human, UniProt P20138 18-364). As to the kind of experiment: flow cytometry, HEK293-T, IgG.
The target in another test is human CD33 N20W (human, UniProt P20138 18-364). As to the kind of experiment: flow cytometry, HEK293-T, IgG.
For another test, the target named is human CD33 Q24E (human, UniProt P20138 18-364). As to the kind of experiment: flow cytometry, HEK293-T, IgG.
For another test, the target named is human CD33 N20G (human, UniProt P20138 18-364). Nature of the test: flow cytometry, HEK293-T, IgG.
The target of another test is human CD33 Q24N (human, UniProt P20138 18-364). As to the kind of experiment: flow cytometry, HEK293-T, IgG.
For another test, the target named is human CD33 P19D (human, UniProt P20138 18-364). As to the kind of experiment: flow cytometry, HEK293-T, IgG.
In a further test the target is human CD33 F21H (human, UniProt P20138 18-364). Nature of the test: flow cytometry, HEK293-T, IgG.
A further test concerns the target human CD33 N20E (human, UniProt P20138 18-364). As to the kind of experiment: flow cytometry, HEK293-T, IgG.
For the next test, the target named is human CD33 Q24T (human, UniProt P20138 18-364). As to the kind of experiment: flow cytometry, HEK293-T, IgG.
The next test concerns the target human CD33 N20T (human, UniProt P20138 18-364). As to the kind of experiment: flow cytometry, HEK293-T, IgG.
The next test deals with human CD33 D18R (human, UniProt P20138 19-364). Nature of the test: flow cytometry, HEK293-T, IgG.
The target of the next test is human CD33 W22R (human, UniProt P20138 18-364). As to the kind of experiment: flow cytometry, HEK293-T, IgG.
The next test has as its target human CD33 P132L (human, UniProt P20138 18-364). Nature of the test: flow cytometry, transfected cells, IgG.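 Further: CD33 point mutants transiently expressed in HEK293-T cells, antibody binding read by fluorescence, background subtracted and normalized to wild-type CD33 as 100%, duplicates.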

Sequence of human CD33 N20Y (P20138 18-364 N20Y limits assumed): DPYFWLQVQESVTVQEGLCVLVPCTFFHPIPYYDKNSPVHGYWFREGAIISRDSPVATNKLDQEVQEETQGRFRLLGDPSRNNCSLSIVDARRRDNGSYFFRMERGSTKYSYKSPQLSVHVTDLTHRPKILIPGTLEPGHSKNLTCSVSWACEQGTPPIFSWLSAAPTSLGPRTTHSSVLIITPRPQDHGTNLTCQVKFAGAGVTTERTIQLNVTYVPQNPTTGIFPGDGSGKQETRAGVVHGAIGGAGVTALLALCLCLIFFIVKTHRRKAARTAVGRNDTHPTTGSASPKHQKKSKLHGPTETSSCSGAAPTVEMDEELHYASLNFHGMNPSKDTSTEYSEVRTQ
Sequence of human CD33 V25I (P20138 18-364 V25I limits assumed): as the sequence (P20138 18-364 N20Y limits assumed) above, with Y3N, V8I counted along it
Sequence of human CD33 N20D (P20138 18-364 N20D limits assumed): as the sequence (P20138 18-364 N20Y limits assumed) above, with Y3D counted along it
Sequence of human CD33 N20E (P20138 18-364 N20E limits assumed): as the sequence (P20138 18-364 N20Y limits assumed) above, with Y3E counted along it
Sequence of human CD33 Q24T (P20138 18-364 Q24T limits assumed): as the sequence (P20138 18-364 N20Y limits assumed) above, with Y3N, Q7T counted along it
Sequence of human CD33 N20L (P20138 18-364 N20L limits assumed): as the sequence (P20138 18-364 N20Y limits assumed) above, with Y3L counted along it
Sequence of human CD33 D18R (P20138 18-364 D18R limits assumed): as the sequence (P20138 18-364 N20Y limits assumed) above, with D1R, Y3N counted along it
Sequence of human CD33 W22L (P20138 18-364 W22L limits assumed): as the sequence (P20138 18-364 N20Y limits assumed) above, with Y3N, W5L counted along it
Sequence of human CD33 Q24R (P20138 18-364 Q24R limits assumed): as the sequence (P20138 18-364 N20Y limits assumed) above, with Y3N, Q7R counted along it
Sequence of human CD33 P132L (P20138 18-364 P132L limits assumed): as the sequence (P20138 18-364 N20Y limits assumed) above, with Y3N, P115L counted along it
Sequence of human CD33 Q24S (P20138 18-364 Q24S limits assumed): as the sequence (P20138 18-364 N20Y limits assumed) above, with Y3N, Q7S counted along it
Sequence of human CD33 W22Q (P20138 18-364 W22Q limits assumed): as the sequence (P20138 18-364 N20Y limits assumed) above, with Y3N, W5Q counted along it
Sequence of human CD33 D18N (P20138 18-364 D18N limits assumed): as the sequence (P20138 18-364 N20Y limits assumed) above, with D1N, Y3N counted along it
Sequence of human CD33 W22T (P20138 18-364 W22T limits assumed): as the sequence (P20138 18-364 N20Y limits assumed) above, with Y3N, W5T counted along it
Procedure for human CD33 D18N: (§1) An alanine scan on human CD33 was performed to the determine the residues on CD33 that are involved in binding to the antibodies investigated. […] Briefly, a mutation library of CD33 was created by high-throughput, site-directed mutagenesis. Each residue was individually mutated to alanine, with alanine codons mutated to serine. The mutant library was arrayed in 384-well microplates and transiently transfected into HEK293-T. Following transfection, cells were incubated with the indicated antibodies (IgG or Fab) at concentrations pre-determined using an independent immunofluorescence titration curve on wild type CD33. […] Binding of each antibody to each mutant clone was determined in duplicates. For each point, background fluorescence was subtracted from the raw data, which were then normalized to antibody reactivity with wild type CD33.
(§2) Antibodies were screened for binding to the human CD33 variants in IgG format. […] For each mutation, background fluorescence was subtracted from the raw data, which were then normalized to antibody reactivity with wild-type CD33.
Procedure for human CD33 D18R: as §1, §2
Procedure for human CD33 F21H: as §1, §2
Procedure for human CD33 F21L: as §1, §2
Procedure for human CD33 N20D: as §1, §2
Procedure for human CD33 N20E: as §1, §2
Procedure for human CD33 N20G: as §1, §2
Procedure for human CD33 N20K: as §1, §2
Procedure for human CD33 N20L: as §1, §2
Procedure for human CD33 N20P: as §1, §2
Procedure for human CD33 N20S: as §1, §2
Procedure for human CD33 N20T: as §1, §2
Procedure for human CD33 N20V: as §1, §2
Procedure for human CD33 N20W: as §1, §2
Procedure for human CD33 N20Y: as §1, §2
Procedure for human CD33 P132L: as §1, §2
Procedure for human CD33 P19D: as §1, §2
Procedure for human CD33 P19L: as §1, §2
Procedure for human CD33 P19W: as §1, §2
Procedure for human CD33 Q24E: as §1, §2
Procedure for human CD33 Q24H: as §1, §2
Procedure for human CD33 Q24I: as §1, §2
Procedure for human CD33 Q24L: as §1, §2
Procedure for human CD33 Q24N: as §1, §2
Procedure for human CD33 Q24R: as §1, §2
Procedure for human CD33 Q24S: as §1, §2
Procedure for human CD33 Q24T: as §1, §2
Procedure for human CD33 Q24V: as §1, §2
Procedure for human CD33 V25I: as §1, §2
Procedure for human CD33 V25M: as §1, §2
Procedure for human CD33 W22L: as §1, §2
Procedure for human CD33 W22P: as §1, §2
Procedure for human CD33 W22Q: as §1, §2
Procedure for human CD33 W22R: as §1, §2
Procedure for human CD33 W22S: as §1, §2
Procedure for human CD33 W22T: as §1, §2
Procedure for human CD33 W22Y: as §1, §2

B1: Refmab #6 (antibody, human IgG1, V domains shown)
VH: QVQLQQPGAEVVKPGASVKMSCKASGYTFTSYYIHWIKQTPGQGLEWVGVIYPGNDDISYNQKFQGKATLTADKSSTTAYMQLSSLTSEDSAVYYCAREVRLRYFDVWGQGTTVTVSS
VL: EIVLTQSPGSLAVSPGERVTMSCKSSQSVFFSSSQKNYLAWYQQIPGQSPRLLIYWASTRESGVPDRFTGSGSGTDFTLTISSVQPEDLAIYYCHQYLSSRTFGQGTKLEIK
notes: tested in IgG format
Turning to B1, the “Mean % WT Binding” value in the test with human CD33 P19L was 103 % WT binding; in the test with human CD33 Q24H it was 100 % WT binding; with human CD33 W22T, 2.6 % WT binding; with human CD33 N20K it was 91.8 % WT binding; with human CD33 W22Y it was 4.1 % WT binding; in the test with human CD33 N20Y, 28 % WT binding. Besides, the “Mean % WT Binding” value with human CD33 V25M came out at 68.6 % WT binding; with human CD33 W22S, 6.7 % WT binding; with human CD33 F21L it was 118 % WT binding; with human CD33 W22Q it was 7.6 % WT binding; in the test with human CD33 D18N it was 32.2 % WT binding; in the test with human CD33 N20P it was 97.2 % WT binding. Moreover, the “Mean % WT Binding” value came to 96.9 % WT binding with human CD33 N20V; 89.9 % WT binding in the test with human CD33 Q24I; 75.5 % WT binding in the test with human CD33 P19W; 1.8 % WT binding in the test with human CD33 W22P; 103 % WT binding with human CD33 N20D; 98.9 % WT binding with human CD33 Q24L. Besides, the “Mean % WT Binding” value in the test with human CD33 W22L was determined as 1.1 % WT binding; in the test with human CD33 V25I it was 106 % WT binding; in the test with human CD33 Q24S, 80.7 % WT binding; with human CD33 Q24R it was 86.2 % WT binding; in the test with human CD33 N20L, 88.2 % WT binding; in the test with human CD33 N20S it was 101 % WT binding. In addition, the “Mean % WT Binding” value in the test with human CD33 Q24V came out at 94.3 % WT binding; in the test with human CD33 N20W, 50.3 % WT binding; with human CD33 Q24E, 89.7 % WT binding; with human CD33 N20G, 101 % WT binding; with human CD33 Q24N it was 95.4 % WT binding; in the test with human CD33 P19D it was 105 % WT binding. Besides, the “Mean % WT Binding” value with human CD33 F21H came out at 111 % WT binding; in the test with human CD33 N20E, 108 % WT binding; with human CD33 Q24T it was 97.7 % WT binding; with human CD33 N20T it was 106 % WT binding; with human CD33 D18R it was 68.3 % WT binding; with human CD33 W22R it was 1.3 % WT binding.

B2: Refmab #6 (antibody, human IgG1, V domains shown)
VH: B1 VH
VL: B1 VL
Turning to B2, the “Mean % WT Binding” value with human CD33 P132L is 6.1%.

B3: Refmab #5 (antibody, human IgG1, V domains shown)
VH: QVQLVQSGAEVKKPGASVKVSCKASGYTFTNYDINWVRQAPGQGLEWIGWIYPGDGSTKYNEKFKAKATLTADTSTSTAYMELRSLRSDDTAVYYCASGYEDAMDYWGQGTTVTVSS
VL: DIQMTQSPSSLSASVGDRVTINCKASQDINSYLSWFQQKPGKAPKTLIYRANRLVDGVPSRFSGSGSGQDYTLTISSLQPEDFATYYCLQYDEFPLTFGGGTKVEIK
notes: tested in IgG format
Take B3: the “Mean % WT Binding” value with human CD33 P19L came out at 100 % WT binding; in the test with human CD33 Q24H it was 104 % WT binding; with human CD33 W22T, 108 % WT binding; with human CD33 N20K, 105 % WT binding; with human CD33 W22Y it was 107 % WT binding; in the test with human CD33 N20Y it was 57.7 % WT binding. Moreover, the “Mean % WT Binding” value came to 87.6 % WT binding in the test with human CD33 V25M; 89.7 % WT binding in the test with human CD33 W22S; 122 % WT binding with human CD33 F21L; 109 % WT binding with human CD33 W22Q; 58.7 % WT binding with human CD33 D18N; 96.8 % WT binding in the test with human CD33 N20P. Further, the “Mean % WT Binding” value was 108 % WT binding with human CD33 N20V; 94.6 % WT binding with human CD33 Q24I; 85.9 % WT binding with human CD33 P19W; 110 % WT binding with human CD33 W22P; 97.1 % WT binding with human CD33 N20D; 101 % WT binding with human CD33 Q24L. The “Mean % WT Binding” value stood at 96 % WT binding with human CD33 W22L; 98.9 % WT binding with human CD33 V25I; 110 % WT binding with human CD33 Q24S; 102 % WT binding with human CD33 Q24R; 96.3 % WT binding in the test with human CD33 N20L; 95.1 % WT binding with human CD33 N20S. The “Mean % WT Binding” value with human CD33 Q24V was found to be 97.9 % WT binding; in the test with human CD33 N20W it was 71.7 % WT binding; with human CD33 Q24E, 95.6 % WT binding; with human CD33 N20G it was 96.9 % WT binding; in the test with human CD33 Q24N, 110 % WT binding; with human CD33 P19D it was 96.4 % WT binding. The “Mean % WT Binding” value turned out to be 108 % WT binding in the test with human CD33 F21H; 109 % WT binding in the test with human CD33 N20E; 105 % WT binding in the test with human CD33 Q24T; 107 % WT binding with human CD33 N20T; 97.4 % WT binding with human CD33 D18R; 104 % WT binding with human CD33 W22R.

B4: Refmab #5 (antibody, human IgG1, V domains shown)
VH: B3 VH
VL: B3 VL
Consider B4, for which the “Mean % WT Binding” value in the test with human CD33 P132L amounted to 89.6%.
